The values below come from publication PMC4721528.

Substrate in the data set: CCCCC/C=C\C/C=C\C/C=C\C/C=C\CCCC(=O)O
The data set can be described thus: mass spectrometric product formation assay. The data set is classed as biochemical, Mus musculus. The settings on record: 50 nM enzyme.

B1: mCOX-2 (mouse COX-2) (Mus musculus; L489M) (protein)
chain: ANPCCSNPCQNRGECMSTGFDQYKCDCTRTGFYGENCTTPEFLTRIKLLLKPTPNTVHYILTHFKGVWNIVNNIPFLRSLIMKYVLTSRSYLIDSPPTYNVHYGYKSWEAFSNLSYYTRALPPVADDCPTPMGVKGNKELPDSKEVLEKVLLRREFIPDPQGSNMMFAFFAQHFTHQFFKTDHKRGPGFTRGLGHGVDLNHIYGETLDRQHKLRLFKDGKLKYQVIGGEVYPPTVKDTQVEMIYPPHIPENLQFAVGQEVFGLVPGLMMYATIWLREHNRVCDILKQEHPEWGDEQLFQTSRLILIGETIKIVIEDYVQHLSGYHFKLKFDPELLFNQQFQYQNRIASEFNTLYHWHPLLPDTFNIEDQEYSFKQFLYNNSILLEHGLTQFVESFTRQIAGRVAGGRNVPIAVQAVAKASIDQSREMKYQSLNEYRKRFSLKPYTSFEELTGEKEMAAELKALYSDIDVMEMYPALLVEKPRPDAIFGETMVELGAPFSLKGLMGNPICSPQYWKPSTFGGEVGFKIINTASIQSLICNNVKGCPFTSFNVQDPQPTKTATINASASHSRLDDINPTVLIKRRSTEL
With B1, the Km (as a rule, the substrate concentration at which the rate is half of its maximum) was determined as 1.4 ± 0.3 µM and the kcat was found to be 3.3 ± 0.1 s^–1.

B2: mCOX-2 (mouse COX-2) (Mus musculus) (protein)
chain: ANPCCSNPCQNRGECMSTGFDQYKCDCTRTGFYGENCTTPEFLTRIKLLLKPTPNTVHYILTHFKGVWNIVNNIPFLRSLIMKYVLTSRSYLIDSPPTYNVHYGYKSWEAFSNLSYYTRALPPVADDCPTPMGVKGNKELPDSKEVLEKVLLRREFIPDPQGSNMMFAFFAQHFTHQFFKTDHKRGPGFTRGLGHGVDLNHIYGETLDRQHKLRLFKDGKLKYQVIGGEVYPPTVKDTQVEMIYPPHIPENLQFAVGQEVFGLVPGLMMYATIWLREHNRVCDILKQEHPEWGDEQLFQTSRLILIGETIKIVIEDYVQHLSGYHFKLKFDPELLFNQQFQYQNRIASEFNTLYHWHPLLPDTFNIEDQEYSFKQFLYNNSILLEHGLTQFVESFTRQIAGRVAGGRNVPIAVQAVAKASIDQSREMKYQSLNEYRKRFSLKPYTSFEELTGEKEMAAELKALYSDIDVMELYPALLVEKPRPDAIFGETMVELGAPFSLKGLMGNPICSPQYWKPSTFGGEVGFKIINTASIQSLICNNVKGCPFTSFNVQDPQPTKTATINASASHSRLDDINPTVLIKRRSTEL
Regarding B2, the Km was 2.3 ± 0.3 µM and the kcat is reported as 3.1 ± 0.1 s^–1.
